From the DeepSol protein solubility set

Experiment: soluble on expression in E. coli; label from the status in PepcDB or PDB records

Sequence | soluble on expression in E. coli
MGSDKIHHHHHHMAQHEMSPRANSETDTVVLDAPGKSVYESLCEKINLTPVKATRPMESFQSADALSESSLDERVAQAMTVFLKMIQDSSQQVDRLDKSLLDFHIAHLDQQISQQLDAIMHHETFQQIESAWRGLKFLVDRTDFRKNVKIEVLDVSKDALRQDFEDTPELIQSGLYLHTYIQEYDTPGGEPVGSIISNYEFDRSQQDIVLLRNISKVSAAAHMPFIGSVSPKFFGKDSMDEVASIRDIGNYFDRAEYLKWKSFRDSDDARYIGLTLPRFLARLPYGPDTVPVRAFNYTEAVKGPDHSRYLWGNASFAFAVNMVQSFIKNGWCVQIRGPQAGGLVEDLPIHLYDLGTGNQAKIPTEVLIPETREFEFANLGFIPLSYYKNHDFACFFSAHSAQKPALYDTKEATANSRVNARLPYIFLLSRIAHYLKLIQRENIGTTKDRRVLELELNTWIKTLVTEMTDPGDELQASHPLREAKVIVEDIEDNPGFFRVKLFIVPHFQIEGMDINLSLVSQMPKAKTDRLLSASTAI | not soluble
MGSDKIHHHHHHMARLAVEPLEALARYQGEPALAAMRREFLPAVTDPVWRGLVEEFLTLDEPLTPYAHQCRRVWSFAASPGSGAHHAHIGGLALHVLQDLRNARALAEAHEARGLALDRGLLFAAIMLHDCLKRFVYDFDDDYALVKAEDPFIARHEDHHSWMLRELVARGVDRTLVLAVAAMHGLDDVSLASGVRPLAVVNHYLEIGLTGLEMQPEDVRAEHSIGFLSDSDWPWSGRAQQRAREVAAALSPRFEVTTGYMNLYLGSRFSFEHIDSLLRTKGHDGTVDHLSTLLEKQG | not soluble
MGSDKIHHHHHHMASLVDQITDLYVRMAELERRNRNRRRKGTIAEVSDDKSKYRVKLSEQAGKPYLTPWIKARTLAAGGVKVDVLYSVGEQVDVVSENGEMTDAQIDFSTYSDDNARENSDTPFHIKIGDTVIEASAGQAKVTSPKVIVESPNVQLGGDGGKRVARIGDLVHVMSGSSSGKWPIVEGSEHVFAVD | not soluble
MGSDKIHHHHHHMASVYWIPKLRIIPRTKFVTICPITLTLSLSMQYSPNLAHGTLLRRYKRFLADVLLDDGTEITLHCPNTGSMKNCLFPGETVWFSTSNNPKRKYAHTWEQSSTPDKQLIGINTGRANALAEEAINLGVIKELTGYDRLQREVKYGEENSRIDILLSSDTRASCYIEVKSCTLLEEGSTSGRGYFPDSVTVRGQKHLRELIHMVKQGHRAVLLFVVQHSGINSVSPARHIDVAYSELFTQALDAGVEVLAYQTQMSPQESQILTSCPVIT | not soluble
MGSDKIHHHHHHMATLYLIEQGAEIGCDGERIVVRRAGEIIGSVPLVKVDDIVIFGNIGISTPAIKRLLDRSIEVTFMTVDGSYQGRLVGQVTAHVALRQAQYACAADSDRTLRLAQSFVEGKLRNQRALLQRFSRNRATPPAEALAAADDLDAYIKRVRRTTRLSALLGVEGSATARYFAGLRSLIEPEWDFRSRQRRPPPDPVNLLLSFGYTLLTHKTLGAVQAAGFDPYLGFLHSLDYGRPSLALDLMEEFRPLLIDSLVVRVCNDGRLRLEHFQPGDEARPVIITDEGKRAFLTAFEERMRTEATHPEGADSGPGKVTYQRCIALQARRLARVIRGQQERYEPFTAR | not soluble
MGSDKIHHHHHHMATRSATQPVSPQVARLARGLKLGANSMLVTLFGDVVAPRPQALWLGSLIRLAEPFGINDRLVRTATFRLTSDDWLNATRIGRRSYYGLSEAGLQRCLHAGKRIYAGDAPDWDGRWTLALVRGDARATIRQRLKRELLWEGFGAIAPGVYAHPNADANSLGEIIRAAHAQDFVAVMDATSLETFSIRPLQTLMHQTFKLGDVASAWQALLRRFSPVLADAHAMTPADAFFVRTLLLHEYRRVLLRDPNLPEQLLPTDWPGRTARDLCRDMYAALLDASEDYLREVVEVSEGTLANATRLLRRRFAMA | not soluble
MGSDKIHHHHHHMATTNAASTVRELIREHYSALTQAERKFANALLDNYPAAGLASITIVASNVGVSSPTVARMVKKLGFKGYPEFHKALLSELEAKGVGPTKRRDNWSSEAPQEHLLNRFSQAVTNNLQQTFAHIDTERFDQATRQLADTEKRLYIVGGRITQALADYAFTHFQAVRPGVTHMTSSSGTWPHYVLDMEPGDTLLIFDVRRYETNLLRLTEIVKKRGAQIVLFTDQWGSPISTLADLTFHCRVEIPSGWDSNVATMMLLETMIASVQEQRWPDARDRYERLDELFDKTHFFRKFT | not soluble
MGSDKIHHHHHHMATVTTSEGSAERREADSGALARGLNILSRLHEAARPLSLQDIAESVGLPTTTCHRLLQSLDVAGYVYREGSLYCPTPRAACPLPLEHPLNRLRRDTAPLMRELQERHGPSVLLIAFLGDHRVTVECVAGNYSVTPYFDTTVTAPLHASVSGKILLSDRTDEQRDALLGQAPYSARTEWTIRDRAALYAELEEVRKRGWATNQNENVIGICAVGSRLAAPSGRALGAIVLTGPSRFFAKGFDTMRDDLLQACQMLNSTSHAIRTMTQLLGV | not soluble
MGSDKIHHHHHHMAVRMLDIARRFNMLSERIRRESVELGIPAIDPEDGLILSSAAFYVGGGTGSYVDAGAGIGYSTIWIAYGAYHRCTDITCKIVAIEYDVELASILSRNLREVEAMFRGRIEFEVVSGDALDYFSRLEEKGREVFDMAFVDIEKGDYPEALERLENLLTAGGVAAFYNAFQPPPPPLFFDMVSKRPWKPVVLPTPAGLLLAVKTAG | not soluble
MGSDKIHHHHHHMAYLEVLRYLYHKRPMGKVKPGLERISMLLSKLGNPHLEYKTIHIGGTNGKGSVANMVSNILVSQGYRVGSYYSPHLSTFRERIRLNEEYISEEDVVKIYETMEPILNELDKEEIFSPSFFEVVTAMAFLYFAEKNVDIAVLEVGLGGRLDATNVVFPLCSTIVTVDRDHEKTLGYTIEQIAWEKSGIIKERVPLVTGERKREALKVMEDVARKKSSRMYVIDKDFSVKVKSLKLHENRFDYCGENTFEDLVLTMNGPHQIENAGVALKTLEATGLPLSEKAIREGLKNAKNLGRFEILEKNGKMYILDGAHNPHGAESLVRSLKLYFNGEPLSLVIGILDDKNREDILRKYTGIFERVIVTRVPSPRMKDMNSLVDMAKKFFKNVEVIEDPLEAIESTERATVVTGSLFLVGYVREFLTTGKINEEWKL | soluble
MGSDKIHHHHHHMCMTSPDQLTASESADTASAHKRVLVAAPRGYCAGVDRAVETVEKALEKYGAPVYVRKEIVHNRYVVDTLAERGAIFVDETTEAPEGAHLVFSAHGVSPAVHKEAEALSLKTLDATCPLVTKVHNEVKRFARDGYHILLVGHEGHEEVEGTAGEAPDVTHLVDGVESVDKLPEFLHDEKLIWLSQTTLSVDETMTIVKKLHERFAHLQDPPSDDICYATQNRQVAVKAIAAESDVVIVVGSQNSSNSKRLVEVALQAGAGASYLVDYAHQIDESWLDGATTVGVSSGASVPEILVRGVLEFLDARGFHDVKEITTAAEKITFALPRDLRPART | not soluble
MGSDKIHHHHHHMCSPTNFLYEPFSSDAVTQNYDQNLKCTKCGAYYSMACSLREQNVWTCLFCNQSNSNAELPLVPSNTYTLTSAKKEILSRRTIMIIDAICDPHELNYLVSILCNNYITRQQEPLSIITIQQSGHVILHNAVNHRRDAVFSINEFMTKYNLDKLNASYFEKKISEINQESYWFDKSTQGSLRKLLREICKIANKVNISSKRDKRCTGLALFVSSVLASQCSLSAYCHIVSFLNGPCTKGGGKVMSRERGESMRQNHHFESKSSQLQLSKSPTKFYKKMLEKFANQSLIYEFFIASLDQIGILEMSPLITSSMAVSQFDSFNDERFAMSFQKYLNLRDHNAIYNCHSKIMTAKNAIVVKDFPKYSLNPKNLSLPLEISLGHNSAEAPIQFQTTFENQTEKYIRIETLLLPKANRSFGAQNEIVFSMKKIASRIIDSFAYSSKHTKELMKQLFLLPNQIRGKDVDMVNLIQWCYHIYRSPILSVRNTSPDERYLFLHRIINASKDTCLSLCKPFIWSYSDLKHDWIVLDVPLTRAQILQDDKTTICVDGGSYLVLRRGKLLEKEGRELCCKLLNDLQRFPQPLYVETKTGGSQDRFLKSKIIPLDITDKETLGTEDMTFNEYFNLFTDLSGSK | not soluble
